Measurements as given in the supplement of paper PMC10567573.

B1: CIB1 (parent)
chain: DLSRLVNCLTGEGEDTRLSASEMK

Variants of: B1
Assay: protein stability index of a GFP-peptide fusion (GPS, HEK-293T) (PSI 1-6); higher = more stable
Conditions: c terminus: a fixed tail appended
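Also: lentivirally expressed fusions sorted by FACS into six bins by GFP to DsRed ratio, PSI derived from sequencing read proportions per bin multiplied by bin number.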

Protein stability index: each site, then its substitutions
S3: Y 2.79, K 3.27, F 2.9, C 2.98, L 2.2
C8: E 3.42, A 3.09, L 2.21, G 3.77, Q 3.95, I 2.4, S 3.63, M 3.52
A20: K 1.61, M 2.19, T 1.89, Q 3.71, N 2.75, P 3.15
L5: Y 2.27, K 4.53, P 5.06, G 5
L2: E 5.67, Y 3.82, F 3.85, C 3.87, N 4.22, Q 4.6, I 2.82
L18: P 3.79, R 4.11, K 3.36, V 3.63, W 2.78, S 3.06, F 1.85, N 3.75, M 2.49, A 3.34
E14: H 3.05, R 2.34, I 2.6, N 3.06, A 2.37
K24: W 1.86, I 1.81, V 2.04, H 2.37, C 3.03
D15: E 3.52, V 1.54, T 2.12, A 3.61, G 3.83, R 2.67, K 3.1, H 3.49, C 2.19
M23: I 3.03, Y 2.7, D 2.32, T 3.14, L 3.23, F 3.12, V 3.17
S21: A 2.1, T 3.1, P 3.5, E 4.15, Y 3.14, F 2.36, L 2.06
S19: T 2.01, Y 2.29, H 3.01, Q 2.78, A 3.2, D 3.17, C 1.89, F 4.13
D1: L 2.04, C 2.65, R 3.68, N 2.89, M 2.49, S 2.8
E22: P 4.12, G 2.81, K 4.44, T 3.61, M 2.46
T16: P 4.07, V 2.8, F 2.07, E 3.18, A 2.46, Y 2.49, H 3.5, M 2.62, K 3.87
T10: F 2.77, W 2.48, H 3.94, P 2.44, L 2.44, M 2.11, D 3.27, G 2.92
V6: S 2.6, R 3.94, N 4.04, E 2.91, I 3.25, M 3.61, Q 2.64
E12: C 3.46, L 1.88, V 3.34, T 1.85, W 2.05, D 1.73, A 2.15, Y 2.17, P 3.04, K 3.29, M 3.22
G11: T 2.6, Y 2.67, N 3.7, F 3.35, Q 3.03, R 2.9, K 3.49
R4: Y 2.85, K 3.12, V 2.01, L 3.47, A 3.8, N 2.39
R17: V 2.65, E 4.53, P 3.35, Q 3.1, F 2.99, N 2.76
N7: A 3.12, G 2.74, E 4, R 3.09, P 4.6, D 4.32
G13: T 3.16, M 2.76, H 3.31, N 2.71, K 3.45, P 3.03, Y 3.02, S 3.97, W 2.4, E 3.07
L9: E 3.09, V 4.17, Q 3.25, F 3.35, A 1.75
